B1: TPR t1 (parent)
chain: GACCAAUCUGCCCUCAGAGCUCGAGAACAUCUUCGGAUGCAGAGGAGGCAGGCUUCGGUGGCGCGAUAGCGCCAACGUCCUCAACCUCCAAUGCAUCCCACCACAUGAUGAUGCCUGAAGAGCCUUGGUUUUUUG

Variants of: B1
Test: polymerase ribozyme fitness, log enrichment relative to wild type (log ratio); higher = more active; in vitro selection for triplet polymerase activity
Method in brief: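 In triplicate, a single round of in vitro selection was run on each mutant library, PCR-built and transcribed, covering one subunit of a heterodimeric triplet polymerase ribozyme. Frozen incubation at −7 °C followed annealing with a biotinylated primer, partner subunit and triplets, and extended constructs were then gel-excised, streptavidin-captured and taken through RT-PCR. Fitness is the logarithm of genotype enrichment over wild-type enrichment, from inverse-variance-weighted replicate averages of Illumina-sequenced inputs and outputs. […] only genotypes with ≥10 input reads and ≥1 read per output were kept.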

Variant	polymerase ribozyme fitness (log ratio)
U30C A43U C56U G58U U112G	-6.19
G61A G93A	-0.586
C82G G110C	-4.38
C80A C97G G117C	-7.22
A16C G45U	-4.66
U109A C124U	-4.15
U9G G47A C76A C82G U116A	-2.05
U9A A27G C72U C114U	-1.39
A37G C53A G57U	0.602
C13A A108G	-5.35
U33A G69A C79A A121G	-6.8
C49A C124U U132C	1.03
C12A U21C C72G	-0.431
C70A U126C	-2.02
C56A G63A C89U	-3.22
C49G U81C	-3.21
C8G G69A C88A	-2.65
U30A G52C	-5.66
G36A C73A	-1.1
G60U A111C G122C	-0.82
U21C U54A G93A A111C	-0.948

Variant	polymerase ribozyme fitness (log ratio)
U7C G17A	-1.12
A27U U54G C123U	-1.23
A5U G113A G122A G127C	-3.33
C12G G48C A91C	-2.22
U87A U92G G93U C104A A111G C114U U130C	-7.15
U14C C72A A111U	-6.13
C3U C72U C76U C85U U116G C124U U129C	-6.12
C40U C79A C101U	-2.1
U54A G63U	-0.939
G48C C62U	-2.91
C40G C72U G127C	-2.34
U9G G19A G110C U112C C123G C124G	-7.8
C13G A43U G58A	-4.45
C11U C49G A95C	-2.54
U78A C79U	0.293
G25U A26G A46U	-3.61
A5U A6G A46C C115G	-2.4
G48U G122A	-1.27
G17C G48U G60A C89G C102A C114A	-6.76
A41U A46U C72U A83C U109A	-7.09
C8G U87A U112G G113U C123U G127A	-3.6

Variant	polymerase ribozyme fitness (log ratio)
C20A G110U	-3.99
G17U U133G	-2.64
A46G G61U	-0.252
U32C G36A G60U	-2.12
A24G U55G	-1.71
A43U U112G	-1.93
C11U C22U U55C C56U A66U	-6.04
U14C A18G U21C G69U A103C C115U	-5.98
C31U G39C G44U C85G G110C	-6.47
U112G C115A U126G	-2.63
C11G A29G G61U C94G	-2.6
C31U G60A G71A U78G C101U G110U U125A	-6.74
C4G G71U C115U	-3.28
G19U C94A A105C C114A A118U	-0.986
C28G G63A	-4.42
G39C C73U C99U C102A C124A G135A	-4.92
A46U C101U A121U	0.775
U54G C56G A83C G120U	-1.88
A18C G42U A46G G47A C86U	-2
A43U U112A	-0.216
A18U C72U C85A	-3.5

Variant	polymerase ribozyme fitness (log ratio)
A90C C114A C124A U125C	0.0876
A27U A29G C72A	-2.36
C4A U32C G61A U106A G127U U130G G135U	-2.56
G60U U130A	-0.92
A66U C76G U78A U106A	-0.894
C13A G61U	-1.08
A50U U87G	-1.44
C98A A118U	-4.71
C80U C88G C124U	-1.05
C4A A46U C56U C72G C123G	-4.32
C8A A26U C89G C94U C124G U125G G127U	-3.87
C73U C98U	-0.593
A108G U109A C124A	-4.41
G48A C115A	-1.47
C11A G128C	-3.97
C56A C101U U106C A111C	-0.932
G52A G122A	-0.494
A5G U38G C114A	-2.6
C12A C62G	-0.737
G61C A103C U130G	-6.98

Reference: the RNAGym collection of RNA variant scans (doi:10.1073/pnas.2313332121)
